Here are results for one protein from US7005285.

B1: human p21-activated kinase 5 (PAK5), full length, expressed in 293 cells from pcDNA3.1 myc-his (protein)
chain: MFGKKKKKIEISGPSNFEHRVHTGFDPQEQKFTGLPQQWHSLLADTANRPKPMVDPSCITPIQLAPMKTIVRGNKPCKETSINGLLEDFDNISVTRSNSLRKESPPTPDQGASSHGPGHAEENGFITFSQYSSESDTTADYTTEKYREKSLYGDDLDPYYRGSHAAKQNGHVMKMKHGEAYYSEVKPLKSDFARFSADYHSHLDSLSKPSEYSDLKWEYQRASSSSPLDYSFQFTPSRTAGTSGCSKESLAYSESEWGPSLDDYDRRPKSSYLNQTSPQPTMRQRSRSGSGLQEPMMPFGASAFKTHPQGHSYNSYTYPRLSEPTMCIPKVDYDRAQMVLSPPLSGSDTYPRGPAKLPQSQSKSGYSSSSHQYPSGYHKATLYHHPSLQSSSQYISTASYLSSLSLSSSTYPPPSWGSSSDQQPSRVSHEQFRAALQLVVSPGDPREYLANFIKIGEGSTGIVCIGTEKHTGKQVAVKKMDLRKQQRRELLFNEVVIMRDYHHDNVVDMYSSYLVGDELWVVMEFLEGGALTDIVTHTRMNEEQIATVCLSVLRALSYLHNQGVIHRDIKSDSILLTSDGRIKLSDFGFCAQVSKEVPKRKSLVGTPYWMAPELISRLPYGTEVDIWSLGIMVIEMIDGEPPYFNEPPLQAMRRIRDSLPPRVKDLHKVSSVLRGFLDLMLVREPSQRATAQELLGHPFLKLAGPPSCIVPLMRQYRHH
Consider B1, for which the “kinase assay: incorporation of 32P from [gamma-32P]ATP into substrate, SDS gel and phosphoimager” value with histone H1 is “PAK5 is able to phosphorylate generic kinase substrates such as myelin basic protein and histone H1”; in the data set with myelin basic protein, “PAK5 is able to phosphorylate generic kinase substrates such as myelin basic protein and histone H1”.
